Reference: US20140303084A1 (Biogen, published 2014)
Square brackets hold non-standard residues; d marks the D form. Ends that are not written are not given here. Orn = NCCC[C@H](N)C(=O)O; Dab = NCC[C@H](N)C(=O)O; Dap = NC[C@H](N)C(=O)O

B1: RRAPGKLT-Orn-LASY-Asp-WLFWTGIA-COOH (peptide)
peptide: RRAPGKLT[Orn]LASYDWLFWTGIA-OH
modifications: N-terminus assumed
SMILES: CC[C@H](C)[C@H](NC(=O)CNC(=O)[C@@H](NC(=O)[C@H](Cc1c[nH]c2ccccc12)NC(=O)[C@H](Cc1ccccc1)NC(=O)[C@H](CC(C)C)NC(=O)[C@H](Cc1c[nH]c2ccccc12)NC(=O)[C@H](CC(=O)O)NC(=O)[C@H](Cc1ccc(O)cc1)NC(=O)[C@H](CO)NC(=O)[C@H](C)NC(=O)[C@H](CC(C)C)NC(=O)[C@H](CCCN)NC(=O)[C@@H](NC(=O)[C@H](CC(C)C)NC(=O)[C@H](CCCCN)NC(=O)CNC(=O)[C@@H]1CCCN1C(=O)[C@H](C)NC(=O)[C@H](CCCNC(=N)N)NC(=O)[C@@H](N)CCCNC(=N)N)[C@@H](C)O)[C@@H](C)O)C(=O)N[C@@H](C)C(=O)O
B2: RRAPGKLCALASYACLFWTGIA-COOH (peptide)
peptide: RRAPGKLCALASYACLFWTGIA-OH
modifications: cysteine pairing not given here
B3: RRAPGKCTALASYAWCFWTGIA-COOH (peptide)
peptide: RRAPGKCTALASYAWCFWTGIA-OH
modifications: cysteine pairing not given here
B4: RRAPGKLT-Asp-LASY-Orn-WLFWTGIA-COOH (peptide)
peptide: RRAPGKLTDLASY[Orn]WLFWTGIA-OH
modifications: N-terminus assumed
SMILES: CC[C@H](C)[C@H](NC(=O)CNC(=O)[C@@H](NC(=O)[C@H](Cc1c[nH]c2ccccc12)NC(=O)[C@H](Cc1ccccc1)NC(=O)[C@H](CC(C)C)NC(=O)[C@H](Cc1c[nH]c2ccccc12)NC(=O)[C@H](CCCN)NC(=O)[C@H](Cc1ccc(O)cc1)NC(=O)[C@H](CO)NC(=O)[C@H](C)NC(=O)[C@H](CC(C)C)NC(=O)[C@H](CC(=O)O)NC(=O)[C@@H](NC(=O)[C@H](CC(C)C)NC(=O)[C@H](CCCCN)NC(=O)CNC(=O)[C@@H]1CCCN1C(=O)[C@H](C)NC(=O)[C@H](CCCNC(=N)N)NC(=O)[C@@H](N)CCCNC(=N)N)[C@@H](C)O)[C@@H](C)O)C(=O)N[C@@H](C)C(=O)O
B5: RRAPGKLT-Asp-LASY-Lys-WLFWTGIA-CONH2 (peptide)
peptide: RRAPGKLTDLASYKWLFWTGIA-NH2
B6: RRAPGKCTALASYCWLFWTGIA-COOH (peptide)
peptide: RRAPGKCTALASYCWLFWTGIA-OH
modifications: cysteine pairing not given here
B7: RRAPGKLT-Lys-LASY-Asp-WLFWTGIA-COOH (peptide)
peptide: RRAPGKLTKLASYDWLFWTGIA-OH
B8: RRAPGKLCALASYCWLFWTGIA-CONH2 (peptide)
peptide: RRAPGKLCALASYCWLFWTGIA-NH2
modifications: cysteine pairing not given here
B9: RRAPGKLTCLASYAWLCWTGIA-COOH (peptide)
peptide: RRAPGKLTCLASYAWLCWTGIA-OH
modifications: cysteine pairing not given here
B10: RRAPGKLT-Asp-LASY-Dab-WLFWTGIA-COOH (peptide)
peptide: RRAPGKLTDLASY[Dab]WLFWTGIA-OH
modifications: N-terminus assumed
SMILES: CC[C@H](C)[C@H](NC(=O)CNC(=O)[C@@H](NC(=O)[C@H](Cc1c[nH]c2ccccc12)NC(=O)[C@H](Cc1ccccc1)NC(=O)[C@H](CC(C)C)NC(=O)[C@H](Cc1c[nH]c2ccccc12)NC(=O)[C@H](CCN)NC(=O)[C@H](Cc1ccc(O)cc1)NC(=O)[C@H](CO)NC(=O)[C@H](C)NC(=O)[C@H](CC(C)C)NC(=O)[C@H](CC(=O)O)NC(=O)[C@@H](NC(=O)[C@H](CC(C)C)NC(=O)[C@H](CCCCN)NC(=O)CNC(=O)[C@@H]1CCCN1C(=O)[C@H](C)NC(=O)[C@H](CCCNC(=N)N)NC(=O)[C@@H](N)CCCNC(=N)N)[C@@H](C)O)[C@@H](C)O)C(=O)N[C@@H](C)C(=O)O
B11: RRAPGKLTCLASYACLFWTGIA-CONH2 (peptide)
peptide: RRAPGKLTCLASYACLFWTGIA-NH2
modifications: cysteine pairing not given here
B12: RRAPGKLTCLASYAWLCWTGIA-CONH2 (peptide)
peptide: RRAPGKLTCLASYAWLCWTGIA-NH2
modifications: cysteine pairing not given here
B13: RRAPGKLT-Asp-LASY-Lys-WLFWTGIA-COOH (peptide)
peptide: RRAPGKLTDLASYKWLFWTGIA-OH
B14: RRAPGKLCALASYACLFWTGIA-CONH2 (peptide)
peptide: RRAPGKLCALASYACLFWTGIA-NH2
modifications: cysteine pairing not given here
B15: RRAPGKLCALASYCWLFWTGIA-COOH (peptide)
peptide: RRAPGKLCALASYCWLFWTGIA-OH
modifications: cysteine pairing not given here
B16: RRAPGKLT-Dap-LASY-Asp-WLFWTGIA-COOH (peptide)
peptide: RRAPGKLT[Dap]LASYDWLFWTGIA-OH
modifications: N-terminus assumed
SMILES: CC[C@H](C)[C@H](NC(=O)CNC(=O)[C@@H](NC(=O)[C@H](Cc1c[nH]c2ccccc12)NC(=O)[C@H](Cc1ccccc1)NC(=O)[C@H](CC(C)C)NC(=O)[C@H](Cc1c[nH]c2ccccc12)NC(=O)[C@H](CC(=O)O)NC(=O)[C@H](Cc1ccc(O)cc1)NC(=O)[C@H](CO)NC(=O)[C@H](C)NC(=O)[C@H](CC(C)C)NC(=O)[C@H](CN)NC(=O)[C@@H](NC(=O)[C@H](CC(C)C)NC(=O)[C@H](CCCCN)NC(=O)CNC(=O)[C@@H]1CCCN1C(=O)[C@H](C)NC(=O)[C@H](CCCNC(=N)N)NC(=O)[C@@H](N)CCCNC(=N)N)[C@@H](C)O)[C@@H](C)O)C(=O)N[C@@H](C)C(=O)O
B17: RRAPGKLT-Lys-LASY-Asp-WLFWTGIA-CONH2 (peptide)
peptide: RRAPGKLTKLASYDWLFWTGIA-NH2
B18: RRAPGCLTALASYAWLCWTGIA-COOH (peptide)
peptide: RRAPGCLTALASYAWLCWTGIA-OH
modifications: cysteine pairing not given here
B19: RRAPGKLT-Orn-LASY-Asp-WLFWTGIA-CONH2 (peptide)
peptide: RRAPGKLT[Orn]LASYDWLFWTGIA-NH2
modifications: N-terminus assumed
SMILES: CC[C@H](C)[C@H](NC(=O)CNC(=O)[C@@H](NC(=O)[C@H](Cc1c[nH]c2ccccc12)NC(=O)[C@H](Cc1ccccc1)NC(=O)[C@H](CC(C)C)NC(=O)[C@H](Cc1c[nH]c2ccccc12)NC(=O)[C@H](CC(=O)O)NC(=O)[C@H](Cc1ccc(O)cc1)NC(=O)[C@H](CO)NC(=O)[C@H](C)NC(=O)[C@H](CC(C)C)NC(=O)[C@H](CCCN)NC(=O)[C@@H](NC(=O)[C@H](CC(C)C)NC(=O)[C@H](CCCCN)NC(=O)CNC(=O)[C@@H]1CCCN1C(=O)[C@H](C)NC(=O)[C@H](CCCNC(=N)N)NC(=O)[C@@H](N)CCCNC(=N)N)[C@@H](C)O)[C@@H](C)O)C(=O)N[C@@H](C)C(N)=O
B20: RRAPGKCTALASYCWLFWTGIA-CONH2 (peptide)
peptide: RRAPGKCTALASYCWLFWTGIA-NH2
modifications: cysteine pairing not given here
B21: RRAPGCLTALASYCWLFWTGIA-CONH2 (peptide)
peptide: RRAPGCLTALASYCWLFWTGIA-NH2
modifications: cysteine pairing not given here
B22: RRAPGCLTALASYAWLCWTGIA-CONH2 (peptide)
peptide: RRAPGCLTALASYAWLCWTGIA-NH2
modifications: cysteine pairing not given here
B23: RRAPGKCTALASYAWCFWTGIA-CONH2 (peptide)
peptide: RRAPGKCTALASYAWCFWTGIA-NH2
modifications: cysteine pairing not given here
B24: RRAPGKLT-Asp-LASY-Dap-WLFWTGIA-COOH (peptide)
peptide: RRAPGKLTDLASY[Dap]WLFWTGIA-OH
modifications: N-terminus assumed
SMILES: CC[C@H](C)[C@H](NC(=O)CNC(=O)[C@@H](NC(=O)[C@H](Cc1c[nH]c2ccccc12)NC(=O)[C@H](Cc1ccccc1)NC(=O)[C@H](CC(C)C)NC(=O)[C@H](Cc1c[nH]c2ccccc12)NC(=O)[C@H](CN)NC(=O)[C@H](Cc1ccc(O)cc1)NC(=O)[C@H](CO)NC(=O)[C@H](C)NC(=O)[C@H](CC(C)C)NC(=O)[C@H](CC(=O)O)NC(=O)[C@@H](NC(=O)[C@H](CC(C)C)NC(=O)[C@H](CCCCN)NC(=O)CNC(=O)[C@@H]1CCCN1C(=O)[C@H](C)NC(=O)[C@H](CCCNC(=N)N)NC(=O)[C@@H](N)CCCNC(=N)N)[C@@H](C)O)[C@@H](C)O)C(=O)N[C@@H](C)C(=O)O
B25: SKQGRPISPDRRAAGKLTCLASYCWLFGSGISLSRAPESAAP (peptide)
peptide: SKQGRPISPDRRAAGKLTCLASYCWLFGSGISLSRAPESAAP
B26: RRAPGKLT-Lys-LASY-Glu-WLFWTGIA-COOH (peptide)
peptide: RRAPGKLTKLASYEWLFWTGIA-OH
B27: RRAPGCLTALASYCWLFWTGIA-COOH (peptide)
peptide: RRAPGCLTALASYCWLFWTGIA-OH
modifications: cysteine pairing not given here
B28: RRAPGKLTCLASYAWCFWTGIA-COOH (peptide)
peptide: RRAPGKLTCLASYAWCFWTGIA-OH
modifications: cysteine pairing not given here
B29: RRAPGKLTCLASYAWCFWTGIA-CONH2 (peptide)
peptide: RRAPGKLTCLASYAWCFWTGIA-NH2
modifications: cysteine pairing not given here

molecular target: human Factor IXa (human, UniProt P00740 47-191; P00740 227-461); assay: cell-based or functional assay

| EC50 [µM], FXa generation assay [µM] | Binder |
| --- | --- |
| > 1 | B1 |
| > 10 | B2 |
| > 1 | B3 |
| < 0.5 | B4 |
| < 0.5 | B5 |
| > 1 | B6 |
| > 10 | B7 |
| > 1 | B8 |
| > 10 | B9 |
| > 10 | B10 |
| > 1 | B11 |
| > 10 | B12 |
| < 0.5 | B13 |
| > 10 | B14 |
| > 1 | B15 |
| > 10 | B16 |
| > 1 | B17 |
| > 20 | B18 |
| > 10 | B19 |
| > 1 | B20 |
| > 1 | B21 |
| > 1 | B22 |
| > 1 | B23 |
| > 1 | B24 |
| > 10 | B25 |
| < 0.5 | B26 |
| > 1 | B27 |
| > 1 | B28 |
| > 20 | B29 |
